This is an account of results in US20020098189A1 (AstraZeneca / MedImmune, published 2002).

Substrate in experiment [1]: F protein of respiratory syncytial virus (RSV-Long strain), on infectious virus (respiratory syncytial virus (RSV-Long strain)) (UniProt P12568)
Kind of experiment: cell-based or functional assay.

Experiment [2] addresses T1, C-terminal truncated RSV F protein, secreted from recombinant baculovirus-infected cells (respiratory syncytial virus (strain not …, UniProt P03420 26-526)).
T1 construct: also called F antigen of RSV
Nature of the experiment: SPR (BIAcore), F protein immobilized, Fab injected.
Experimental: A typical kinetic study involved the injection of 35 ml of Mab at varying concentrations (25-300 nM) in PBS buffer containing 0.05% Tween-20 (PBS/Tween). The flow rate was maintained at 5 ml/min, giving a 7 min binding phase. Following the injection of Mab, the flow was exchanged with PBS/Tween buffer for 30 min for determining the rate of dissociation. The sensor chip was regenerated between cycles with a 2 min pulse of 10 mM HCI.
More specifically, for measurement of kassoc (or kₒₙ), F protein was directly immobilized by the EDC/NHS method (EDC=N-ethyl-N′-[3-diethylaminopropyl)-carbodiimide). Briefly, 4 μg/ml of F protein in 10 mM NaOAc, pH 4.0 was prepared and about a 30 μl injection gives about 500 RU (response units) of immobilized F protein under the above referenced conditions. The blank flow cell (VnR immobilized-CM dextran surface) was subtracted for kinetic analysis. The column could be regenerated using 100 mM HCI (with 72 seconds of contact time being required for full regeneration). […] The dissociation phase was analyzed from 230 seconds (30 seconds after start of the dissociation phase) to 900 seconds. Kinetics were analyzed by 1:1 Langmuir fitting (global fitting). Measurements were done in HBS-EP buffer (10 mM HEPES, pH 7.4, 150 mM NaCl, 3 mM EDTA, 0.005% (v/v) Surfactant P20.
For measuring k_{off (or k}dissoc) the following conditions were employed. Briefly, 4100 RU of F protein were immobilized (as above) with CM-dextran used as the blank. Here, 3000 RU of Fab was bound (with dissociated Fab high enough to offset machine fluctuation). […] The dissociation phase was 6-15 hours at a flow rate of 5 μl/min.

Experiment [3] has as its target F protein of respiratory syncytial virus (RSV-Long strain), on infectious virus (respiratory syncytial virus (RSV-Long …, UniProt P12568 26-574)). Nature of the experiment: cell-based or functional assay.

T1 sequence (P03420 26-526): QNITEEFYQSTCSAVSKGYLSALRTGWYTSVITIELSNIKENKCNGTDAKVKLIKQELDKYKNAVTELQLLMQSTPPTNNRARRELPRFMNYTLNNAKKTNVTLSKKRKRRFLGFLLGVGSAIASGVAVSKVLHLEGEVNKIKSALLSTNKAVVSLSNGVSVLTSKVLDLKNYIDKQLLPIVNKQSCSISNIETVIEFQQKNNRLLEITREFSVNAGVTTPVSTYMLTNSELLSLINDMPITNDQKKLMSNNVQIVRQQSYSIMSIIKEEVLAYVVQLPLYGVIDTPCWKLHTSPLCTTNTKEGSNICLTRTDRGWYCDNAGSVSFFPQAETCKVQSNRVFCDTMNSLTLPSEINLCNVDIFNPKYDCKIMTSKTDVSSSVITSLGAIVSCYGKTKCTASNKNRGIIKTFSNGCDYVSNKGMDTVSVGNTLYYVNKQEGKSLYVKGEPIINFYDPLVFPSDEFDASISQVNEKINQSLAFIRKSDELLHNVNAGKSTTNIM
Chain of F protein of respiratory syncytial virus (RSV-Long strain), on infectious virus (respiratory syncytial virus (RSV-Long strain)) (P12568 26-574): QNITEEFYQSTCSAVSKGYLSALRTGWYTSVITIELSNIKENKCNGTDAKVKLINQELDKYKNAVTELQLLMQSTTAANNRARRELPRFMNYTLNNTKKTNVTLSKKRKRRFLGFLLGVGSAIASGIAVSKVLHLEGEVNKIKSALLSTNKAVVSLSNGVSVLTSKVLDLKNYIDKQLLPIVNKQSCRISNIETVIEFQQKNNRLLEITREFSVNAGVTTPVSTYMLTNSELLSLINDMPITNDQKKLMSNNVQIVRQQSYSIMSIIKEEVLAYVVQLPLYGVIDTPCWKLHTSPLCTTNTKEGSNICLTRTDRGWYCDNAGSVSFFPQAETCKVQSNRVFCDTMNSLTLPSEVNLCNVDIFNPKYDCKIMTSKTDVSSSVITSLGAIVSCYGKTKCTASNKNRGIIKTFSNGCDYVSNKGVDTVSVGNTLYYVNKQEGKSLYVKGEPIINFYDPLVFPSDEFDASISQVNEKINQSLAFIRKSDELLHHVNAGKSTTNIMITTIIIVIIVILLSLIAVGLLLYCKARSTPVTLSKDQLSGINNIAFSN

B1: Clone 24 (IgG) (antibody, V domains shown)
VH: QVTLRESGPALVKPTQTLTLTCTFSGFSLSTAGMSVGWIRQPPGKALEWLADIWWDGKKHYNPSLKDRLTISKDTSKNQVVLKVTNMDPADTATYYCARDMIFNWYFDVWGQGTTVTVSS
VL: DIQMTQSPSTLSASVGDRVTITCSLSSRVGYMHWYQQKPGKAPKLLIYDTFKLSSGVPSRFSGSGSGTEFTLTISSLQPDDFATYYCFQGSGYPFTFGGGTKVEIKR
Turning to B1, in experiment [1], the Mean IC50 µg/ml, RSV microneutralization came to 0.0625 µg/mL and the Mean IC50 (Control) µg/ml, RSV microneutralization was found to be 0.0645 µg/mL.

B2: Reference clone (Fab fragment with the sequences of FIG. 2 and the CDRs of Table 1) (Fab, V domains shown)
VH: QVTLRESGPALVKPTQTLTLTCTFSGFSLSTSGMSVGWIRQPPGKALEWLADIWWDDKKDYNPSLKSRLTISKDTSKNQVVLKVTNMDPADTATYYCARSMITNWYFDVWGQGTTVTVSS
VL: DIQMTQSPSTLSASVGDRVTITCSASSSVGYMHWYQQKPGKAPKLLIYDTSKLASGVPSRFSGSGSGTEFTLTISSLQPDDFATYYCFQGSGYPFTFGGGTKVEIK
notes: also called basic structure
For B2, in experiment [2], the koff was 0.00065 s⁻¹ and the association rate constant (kon) amounted to 185000 M⁻¹ s⁻¹. The “EC50 (nM), RSV microneutralization” value in experiment [3] worked out at 3.52 nM.

B3: Clone 22 (IgG) (antibody, V domains shown)
VH: QVTLRESGPALVKPTQTLTLTCTFSGFSLSTPGMSVGWIRQPPGKALEWLADIWWDDKKHYNPSLKDRLTISKDTSKNQVVLKVTNMDPADTATYYCARDMIFNFYFDVWGQGTTVTVSS
VL: DIQMTQSPSTLSASVGDRVTITCSLSSRVGYMHWYQQKPGKAPKLLIYDTRGLPSGVPSRFSGSGSGTEFTLTISSLQPDDFATYYCFQGSGYPFTFGGGTKVEIKR
Take B3: in experiment [1], the Mean IC50 µg/ml, RSV microneutralization worked out at 0.0242 µg/mL and the Mean IC50 (Control) µg/ml, RSV microneutralization came out at 0.0235 µg/mL.

B4: Clone 25 (IgG) (antibody, V domains shown)
VH: QVTLRESGPALVKPTQTLTLTCTFSGFSLSTAGMSVGWIRQPPGKALEWLADIWWDGKKDYNPSLKDRLTISKDTSKNQVVLKVTNMDPADTATYYCARDMIFNFYFDVWGQGTTVTVSS
VL: DIQMTQSPSTLSASVGDRVTITCSASSRVGYMHWYQQKPGKAPKLLIYDTFKLSSGVPSRFSGSGSGTEFTLTISSLQPDDFATYYCFQGSGYPFTFGGGTKVEIKR
For the molecule B4, in experiment [1], the Mean IC50 µg/ml, RSV microneutralization came to 0.0357 µg/mL and the Mean IC50 (Control) µg/ml, RSV microneutralization was 0.0354 µg/mL.

B5: Clone 27 (Fab) (Fab, V domains shown)
VH: QVTLRESGPALVKPTQTLTLTCTFSGFSLSTAGMSVGWIRQPPGKALEWLADIWWDGKKSYNPSLKSRLTISKDTSKNQVVLKVTNMDPADTATYYCARDMIFNFYFDVWGQGTTVTVSS
VL: DIQMTQSPSTLSASVGDRVTITCLPSSRVGYMHWYQQKPGKAPKLLIYDTMYQSSGVPSRFSGSGSGTEFTLTISSLQPDDFATYYCFQGSGYPFTFGGGTKVEIK
As for B5, in experiment [1], the Mean IC50 µg/ml, RSV microneutralization came to 0.0179 µg/mL and the Mean IC50 (Control) µg/ml, RSV microneutralization came to 0.0171 µg/mL.

B6: Clone 23 (IgG) (antibody, V domains shown)
VH: QVTLRESGPALVKPTQTLTLTCTFSGFSLSTPGMSVGWIRQPPGKALEWLADIWWDGKKHYNPSLKDRLTISKDTSKNQVVLKVTNMDPADTATYYCARDMIFNWYFDVWGQGTTVTVSS
VL: DIQMTQSPSTLSASVGDRVTITCSPSSRVGYMHWYQQKPGKAPKLLIYDTMRLASGVPSRFSGSGSGTEFTLTISSLQPDDFATYYCFQGSGYPFTFGGGTKVEIKR
On to B6, for which, in experiment [1], the Mean IC50 µg/ml, RSV microneutralization is 0.0217 µg/mL and the Mean IC50 (Control) µg/ml, RSV microneutralization stood at 0.0289 µg/mL.

B7: Clone 20 (IgG) (antibody, V domains shown)
VH: QVTLRESGPALVKPTQTLTLTCTFSGFSLSTAGMSVGWIRQPPGKALEWLADIWWDDKKSYNPSLKDRLTISKDTSKNQVVLKVTNMDPADTATYYCARDMIFNWYFDVWGQGTTVTVSS
VL: DIQMTQSPSTLSASVGDRVTITCSPSSRVGYMHWYQQKPGKAPKLLIYDTRYQSSGVPSRFSGSGSGTEFTLTISSLQPDDFATYYCFQGSGYPFTFGGGTKVEIKR
Take B7: in experiment [1], the Mean IC50 µg/ml, RSV microneutralization was 0.0337 µg/mL and the Mean IC50 (Control) µg/ml, RSV microneutralization was found to be 0.0383 µg/mL.

B8: Clone 18 (IgG) (antibody, V domains shown)
VH: QVTLRESGPALVKPTQTLTLTCTFSGFSLSTAGMSVGWIRQPPGKALEWLADIWWDGKKSYNPSLKDRLTISKDTSKNQVVLKVTNMDPADTATYYCARDMIFNFYFDVWGQGTTVTVSS
VL: DIQMTQSPSTLSASVGDRVTITCLPSSRVGYMHWYQQKPGKAPKLLIYDTMYQSSGVPSRFSGSGSGTEFTLTISSLQPDDFATYYCFQGSGYPFTFGGGTKVEIKR
Turning to B8, in experiment [1], the Mean IC50 µg/ml, RSV microneutralization was found to be 0.0342 µg/mL and the Mean IC50 (Control) µg/ml, RSV microneutralization is 0.0354 µg/mL.

B9: Clone 29 (Fab) (Fab, V domains shown)
VH: QVTLRESGPALVKPTQTLTLTCTFSGFSLSTAGMSVGWIRQPPGKALEWLADIWWDDKKHYNPSLKDRLTISKDTSKNQVVLKVTNMDPADTATYYCARDMIFNFYFDVWGQGTTVTVSS
VL: DIQMTQSPSTLSASVGDRVTITCSASSRVGYMHWYQQKPGKAPKLLIYDTFFLDSGVPSRFSGSGSGTEFTLTISSLQPDDFATYYCFQGSGYPFTFGGGTKVEIK
For B9, in experiment [1], the Mean IC50 µg/ml, RSV microneutralization is 0.0414 µg/mL and the Mean IC50 (Control) µg/ml, RSV microneutralization stood at 0.0411 µg/mL.

B10: Clone 28 (Fab) (Fab, V domains shown)
VH: QVTLRESGPALVKPTQTLTLTCTFSGFSLSTAGMSVGWIRQPPGKALEWLADIWWDDKKSYNPSLKDRLTISKDTSKNQVVLKVTNMDPADTATYYCARDMIFNWYFDVWGQGTTVTVSS
VL: DIQMTQSPSTLSASVGDRVTITCSPSSRVGYMHWYQQKPGKAPKLLIYDTRYQSSGVPSRFSGSGSGTEFTLTISSLQPDDFATYYCFQGSGYPFTFGGGTKVEIK
For the molecule B10, in experiment [1], the Mean IC50 µg/ml, RSV microneutralization stood at 0.177 µg/mL and the Mean IC50 (Control) µg/ml, RSV microneutralization is 0.157 µg/mL.

B11: Clone 19 (IgG) (antibody, V domains shown)
VH: QVTLRESGPALVKPTQTLTLTCTFSGFSLSTAGMSVGWIRQPPGKALEWLADIWWDDKKHYNPSLKDRLTISKDTSKNQVVLKVTNMDPADTATYYCARDMIFNFYFDVWGQGTTVTVSS
VL: DIQMTQSPSTLSASVGDRVTITCSASSRVGYMHWYQQKPGKAPKLLIYDTFFLDSGVPSRFSGSGSGTEFTLTISSLQPDDFATYYCFQGSGYPFTFGGGTKVEIKR
As to B11, in experiment [1], the Mean IC50 µg/ml, RSV microneutralization was determined as 0.0171 µg/mL and the Mean IC50 (Control) µg/ml, RSV microneutralization came out at 0.0154 µg/mL.

B12: Clone 21 (IgG) (antibody, V domains shown)
VH: QVTLRESGPALVKPTQTLTLTCTFSGFSLSTPGMSVGWIRQPPGKALEWLADIWWDDKKHYNPSLKDRLTISKDTSKNQVVLKVTNMDPADTATYYCARDMIFNFYFDVWGQGTTVTVSS
VL: DIQMTQSPSTLSASVGDRVTITCSLSSRVGYMHWYQQKPGKAPKLLIYDTFYLSSGVPSRFSGSGSGTEFTLTISSLQPDDFATYYCFQGSGYPFTFGGGTKVEIKR
On to B12, for which, in experiment [1], the Mean IC50 µg/ml, RSV microneutralization was found to be 0.0231 µg/mL and the Mean IC50 (Control) µg/ml, RSV microneutralization was 0.0223 µg/mL.

B13: Clone 26 (IgG) (antibody, V domains shown)
VH: QVTLRESGPALVKPTQTLTLTCTFSGFSLSTAGMSVGWIRQPPGKALEWLADIWWDGKKSYNPSLKDRLTISKDTSKNQVVLKVTNMDPADTATYYCARDMIFNFYFDVWGQGTTVTVSS
VL: DIQMTQSPSTLSASVGDRVTITCSLSSRVGYMHWYQQKPGKAPKLLIYDTMYQSSGVPSRFSGSGSGTEFTLTISSLQPDDFATYYCFQGSGYPFTFGGGTKVEIKR
On to B13, for which, in experiment [1], the Mean IC50 µg/ml, RSV microneutralization is 0.0376 µg/mL and the Mean IC50 (Control) µg/ml, RSV microneutralization worked out at 0.0375 µg/mL.

B14: Clone 2 (Fab) (Fab, V domains shown)
VH: QVTLRESGPALVKPTQTLTLTCTFSGFSLSTAGMSVGWIRQPPGKALEWLADIWWDDKKDYNPSLKSRLTISKDTSKNQVVLKVTNMDPADTATYYCARDMIFNWYFDVWGQGTTVTVSS
VL: DIQMTQSPSTLSASVGDRVTITCSASSSVGYMHWYQQKPGKAPKLLIYDTFKLASGVPSRFSGSGSGTEFTLTISSLQPDDFATYYCFQGSGYPFTFGGGTKVEIK
For B14, in experiment [2], the koff worked out at 0.000422 s⁻¹ and the kon stood at 531000 M⁻¹ s⁻¹. In experiment [3], the “EC50 (nM), RSV microneutralization” value came out at 5.05 nM.

B15: Clone 3 (Fab) (Fab, V domains shown)
VH: QVTLRESGPALVKPTQTLTLTCTFSGFSLSTAGMSVGWIRQPPGKALEWLADIWWDDKKDYNPSLKSRLTISKDTSKNQVVLKVTNMDPADTATYYCARDMIFNWYFDVWGQGTTVTVSS
VL: DIQMTQSPSTLSASVGDRVTITCSASSSVGYMHWYQQKPGKAPKLLIYDTYKQTSGVPSRFSGSGSGTEFTLTISSLQPDDFATYYCFQGSGYPFTFGGGTKVEIK
B15: in experiment [2], the koff was determined as 0.000422 s⁻¹ and the kon worked out at 605000 M⁻¹ s⁻¹. Further, the “EC50 (nM), RSV microneutralization” value in experiment [3] came to 4.7 nM.

B16: Clone 5 (Fab) (Fab, V domains shown)
VH: QVTLRESGPALVKPTQTLTLTCTFSGFSLSTAGMSVGWIRQPPGKALEWLADIWWDDKKDYNPSLKSRLTISKDTSKNQVVLKVTNMDPADTATYYCARDMITNFYFDVWGQGTTVTVSS
VL: DIQMTQSPSTLSASVGDRVTITCSASSSVGYMHWYQQKPGKAPKLLIYDTFKLASGVPSRFSGSGSGTEFTLTISSLQPDDFATYYCFQGSGYPFTFGGGTKVEIK
With B16, in experiment [2], the koff is 0.000306 s⁻¹ and the kon was 416000 M⁻¹ s⁻¹. In addition, the “EC50 (nM), RSV microneutralization” value in experiment [3] was determined as 2.61 nM.

B17: Clone 4 (Fab) (Fab, V domains shown)
VH: QVTLRESGPALVKPTQTLTLTCTFSGFSLSTAGMSVGWIRQPPGKALEWLADIWWDDKKDYNPSLKSRLTISKDTSKNQVVLKVTNMDPADTATYYCARDMIFNWYFDVWGQGTTVTVSS
VL: DIQMTQSPSTLSASVGDRVTITCSASSSVGYMHWYQQKPGKAPKLLIYDTRYLSSGVPSRFSGSGSGTEFTLTISSLQPDDFATYYCFQGSGYPFTFGGGTKVEIK
notes: also called H3-3F4
In the case of B17, in experiment [2], the koff was 0.000462 s⁻¹ and the kon was 757000 M⁻¹ s⁻¹. In experiment [3], the “EC50 (nM), RSV microneutralization” value came to 3.55 nM.

B18: Clone 1 (Fab) (Fab, V domains shown)
VH: QVTLRESGPALVKPTQTLTLTCTFSGFSLSTAGMSVGWIRQPPGKALEWLADIWWDDKKDYNPSLKSRLTISKDTSKNQVVLKVTNMDPADTATYYCARDMITNFYFDVWGQGTTVTVSS
VL: DIQMTQSPSTLSASVGDRVTITCSASSSVGYMHWYQQKPGKAPKLLIYDTFKLTSGVPSRFSGSGSGTEFTLTISSLQPDDFATYYCFQGSGYPFTFGGGTKVEIK
As to B18, in experiment [2], the koff came out at 0.000326 s⁻¹ and the kon was determined as 365000 M⁻¹ s⁻¹. In experiment [3], the “EC50 (nM), RSV microneutralization” value was 2.26 nM.
